What all share (assay): competitive binding vs radioiodinated native neurotensin, human tumor sections
Assay [1] addresses neurotensin receptors (frozen tissue sections from receptor-positive human tumors) (human) (UniProt P30989).
The target in assay [2] is T1, neurotensin receptors (frozen tissue sections from receptor-positive human tumors) (human, UniProt P30989 1-418).
T1 construct: whole, on cells
An excerpt: (§1) Frozen tissue sections from receptor-positive human tumors were used in a competitive binding assay.

Assay [3] addresses T1, neurotensin receptors (frozen tissue …).
From the text: as §1
This is another data set of the same source.

Assay [4] has the same target.
From the text: as §1
The source holds these as a separate data set.

Where two headings read alike, the source gives them in different places. *1 amine or outer side, *2 acyl side, *3 side chain or, on linkers, in order; H or OH if unused. [ ]: non-standard residue; d: D form. The star is where a group is joined. trans‑Cha(4-CH2NH2) = trans-(4-aminomethyl)cyclohexylalanine, O=C([C@H](C[C@H]1CC[C@H](CN[*:3])CC1)N[*:1])[*:2]; Gly(1-amidinopiperidin-4-yl) = N=C(N)N1CCC([C@H](N)C(=O)O)CC1; DTPA = O=C(O)CN(CCN(CC(=O)O)CC(=O)O)CCN(CC(=O)O)CC(=O)*; Phe(4-guanidino) = N=C(N)Nc1ccc(C[C@H](N)C(=O)O)cc1; homoAla(PipAm) = (N-amidinopiperidinyl)homoalanine; Ala(PipAm) = (N-amidinopiperidinyl)alanine; Dmt = Cc1cc(O)cc(C)c1C[C@H](N)C(=O)O; mTyr = N[C@@H](Cc1cccc(O)c1)C(=O)O; Ala(cPr) = N[C@@H](CC1CC1)C(=O)O; AzeCA = azetidinecarboxylic acid; tBuAla = CC(C)(C)C[C@H](N)C(=O)O; Cha = N[C@@H](CC1CCCCC1)C(=O)O; Chg = N[C@H](C(=O)O)C1CCCCC1; Tle = CC(C)(C)[C@H](N)C(=O)O; Aba(Apy) = not defined here; PipGly = piperidinylglycine; NHOH = ON*

T1 sequence (P30989 whole entry): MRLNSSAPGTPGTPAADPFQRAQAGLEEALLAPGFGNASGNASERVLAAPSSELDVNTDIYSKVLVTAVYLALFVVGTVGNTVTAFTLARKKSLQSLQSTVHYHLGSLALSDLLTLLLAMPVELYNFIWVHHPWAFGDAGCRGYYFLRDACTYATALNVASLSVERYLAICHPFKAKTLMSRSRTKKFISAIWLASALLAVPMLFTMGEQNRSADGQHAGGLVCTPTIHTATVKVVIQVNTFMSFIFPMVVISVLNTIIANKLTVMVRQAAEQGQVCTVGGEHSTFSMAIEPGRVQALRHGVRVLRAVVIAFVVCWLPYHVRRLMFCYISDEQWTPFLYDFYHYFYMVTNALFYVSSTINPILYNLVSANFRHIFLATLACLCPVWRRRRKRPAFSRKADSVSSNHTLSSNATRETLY
Sequence of neurotensin receptors (frozen tissue sections from receptor-positive human tumors) (human) (P30989 whole entry): as above

The molecule “DTPA-DLys-Pro-Aba(Apy)-Aba(Apy)-Pro-Tyr-Ile-Leu-OH (peptide)” returned a dissociation constant Kd in assay [1] of over 10000 nM.

B1: DTPA-DLys-Pro-(4-Gu)Phe-(4-Gu)Phe-Pro-Tyr-Ile-Leu-OH (peptide)
peptide: {DTPA}-[dK]P[Phe(4-guanidino)][Phe(4-guanidino)]PYIL-OH
SMILES: CC[C@H](C)[C@H](NC(=O)[C@H](Cc1ccc(O)cc1)NC(=O)[C@@H]1CCCN1C(=O)[C@H](Cc1ccc(NC(=N)N)cc1)NC(=O)[C@H](Cc1ccc(NC(=N)N)cc1)NC(=O)[C@@H]1CCCN1C(=O)[C@@H](CCCCN)NC(=O)CN(CCN(CCN(CC(=O)O)CC(=O)O)CC(=O)O)CC(=O)O)C(=O)N[C@@H](CC(C)C)C(=O)O
notes: also called DTPA-DLys-Pro-Phe(4-guanyl)-Phe(4-guanyl)-Pro-Tyr-Ile-Leu-OH
Regarding B1, the Kd in assay [2] and in assay [3] was 175 nM each time.
Regarding {DTPA}-[dK]P[Aba(Apy)]RPYIL-OH (reading uncertain, also called Compound III) [DTPA-DLys-Pro-Aba(Apy)-Arg-Pro-Tyr-Ile-Leu-OH], the Kd in assay [4], in assay [2] and in assay [3] was 68 nM throughout.

B2: DTPA-DLys-Pro-(4-Gu)Phe-Arg-Pro-Tyr-tBuGly-Leu-OH (peptide)
peptide: {DTPA}-[dK]P[Phe(4-guanidino)]RPY[Tle]L-OH
notes: also called Compound IX; DTPA-DLys-Pro-Phe(4-guanyl)-Arg-Pro-Tyr-tBuGly-Leu-OH
In turn, B2 had a dissociation constant (Kd) in assay [2] of 12.5 nM. In assay [3], this molecule showed an IC50 of 12.5 nM.
In assay [2], {DTPA}-[dK]P[homoAla(PipAm)]RPY[Tle]L-OH [DTPA-DLys-Pro-homoAla(PipAm)-Arg-Pro-Tyr-tBuGly-Leu-OH] showed a Kd of 14 nM.

B3: DTPA-DLys-Pro-Gly(PipAm)-Arg-Pro-Tyr-tBuGly-Cpa-OH (peptide)
peptide: {DTPA}-[dK]P[Gly(1-amidinopiperidin-4-yl)]RPY[Tle][Ala(cPr)]-OH
SMILES: CC(C)(C)[C@H](NC(=O)[C@H](Cc1ccc(O)cc1)NC(=O)[C@@H]1CCCN1C(=O)[C@H](CCCNC(=N)N)NC(=O)[C@@H](NC(=O)[C@@H]1CCCN1C(=O)[C@@H](CCCCN)NC(=O)CN(CCN(CCN(CC(=O)O)CC(=O)O)CC(=O)O)CC(=O)O)C1CCN(C(=N)N)CC1)C(=O)N[C@@H](CC1CC1)C(=O)O
In assay [1], B3 gave a dissociation constant Kd of 290 nM. This counts as sub-micromolar.
Still for that read-out and setting: the value for {DTPA}-[dK]P[Gly(1-amidinopiperidin-4-yl)][PipGly]PY[Tle]L-OH [DTPA-DLys-Pro-Gly(PipAm)-PipGly-Pro-Tyr-tBuGly-Leu-OH] was 140 nM; that for {DTPA}-[dK]P[Gly(1-amidinopiperidin-4-yl)]RP[Dmt][Tle]L-OH [DTPA-DLys-Pro-Gly(PipAm)-Arg-Pro-(2,6-diMe)Tyr-tBuGly-Leu-OH] was 45 nM.
In assay [2], {DTPA}-[dK]P[Gly(1-amidinopiperidin-4-yl)]RP[dY][Tle]L-OH [DTPA-DLys-Pro-Gly(PipAm)-Arg-Pro-DTyr-tBuGly-Leu-OH] came in with a Kd of 6.4 nM.

B4: DTPA-DLys-Pro-(4-Gu)Phe-Arg-Pro-Tyr-Ile-Leu-OH (peptide)
peptide: KPXRPYIL
modifications: N-terminal DTPA; D-Lys at 1; (4-Gu)Phe [Phe(4-guanyl)] at 3 (X)
notes: also called Compound I; DTPA-DLys-Pro-Phe(4-guanyl)-Arg-Pro-Tyr-Ile-Leu-OH
Turning to B4, the Kd in assay [4], in assay [2] and in assay [3] was 8.6 nM in each case.
{DTPA}-[dK]P[Gly(1-amidinopiperidin-4-yl)]RPY[Tle]L-OH (also called Compound X) [DTPA-DLys-Pro-Gly(PipAm)-Arg-Pro-Tyr-tBuGly-Leu-OH]: the Kd in assay [2] stood at 3.5 nM. In addition, the IC50 in assay [3] amounted to 3.5 nM.

B5: DTPA-DTyr-Glu-Asn-Lys-Pro-Gly(PipAm)-Arg-Pro-Tyr-tBuGly-tBuAla-OH (peptide)
peptide: {DTPA}-[dY]ENKP[Gly(1-amidinopiperidin-4-yl)]RPY[Tle][tBuAla]-OH
SMILES: CC(C)(C)C[C@H](NC(=O)[C@@H](NC(=O)[C@H](Cc1ccc(O)cc1)NC(=O)[C@@H]1CCCN1C(=O)[C@H](CCCNC(=N)N)NC(=O)[C@@H](NC(=O)[C@@H]1CCCN1C(=O)[C@H](CCCCN)NC(=O)[C@H](CC(N)=O)NC(=O)[C@H](CCC(=O)O)NC(=O)[C@@H](Cc1ccc(O)cc1)NC(=O)CN(CCN(CCN(CC(=O)O)CC(=O)O)CC(=O)O)CC(=O)O)C1CCN(C(=N)N)CC1)C(C)(C)C)C(=O)O
notes: also called Compound XV
B5 yielded a dissociation constant Kd in assay [2] of 3.5 nM.
Molecule {DTPA}-[dK]P[Gly(1-amidinopiperidin-4-yl)]RP[mTyr][Tle]L-OH [DTPA-DLys-Pro-Gly(PipAm)-Arg-Pro-mTyr-tBuGly-Leu-OH] returned a Kd in assay [1] of 300 nM.
The same measure, in the same setting: then {DTPA}-[PipGly]P[Gly(1-amidinopiperidin-4-yl)]RPY[Tle]L-OH [DTPA-PipGly-Pro-Gly(PipAm)-Arg-Pro-Tyr-tBuGly-Leu-OH], with 3.9 nM; and {DTPA}-[dK][AzeCA][Gly(1-amidinopiperidin-4-yl)]RPY[Tle]L-OH [DTPA-DLys-AzeCA-Gly(PipAm)-Arg-Pro-Tyr-tBuGly-Leu-OH], with 24 nM.
As to {DTPA}-[dK]PR[Aba(Apy)]PYIL-OH (reading uncertain) [DTPA-DLys-Pro-Arg-Aba(Apy)-Pro-Tyr-Ile-Leu-OH], the Kd in assay [2] and in assay [3] was 1200 nM in each case.

B6: DTPA-trans-Cha(4-CH2NH2)-Pro-Gly(PipAm)-Arg-Pro-Tyr-tBuGly-Leu-OH (peptide)
peptide: {DTPA}-[trans‑Cha(4-CH2NH2)]P[Gly(1-amidinopiperidin-4-yl)]RPY[Tle]L-OH
SMILES: CC(C)C[C@H](NC(=O)[C@@H](NC(=O)[C@H](Cc1ccc(O)cc1)NC(=O)[C@@H]1CCCN1C(=O)[C@H](CCCNC(=N)N)NC(=O)[C@@H](NC(=O)[C@@H]1CCCN1C(=O)[C@H](C[C@H]1CC[C@H](CN)CC1)NC(=O)CN(CCN(CCN(CC(=O)O)CC(=O)O)CC(=O)O)CC(=O)O)C1CCN(C(=N)N)CC1)C(C)(C)C)C(=O)O
Turning to B6, the Kd in assay [1] amounted to 5 nM.

B7: DTPA-DLys-Pro-Gly(PipAm)-Arg-Pro-Tyr-tBuGly-tBuAla-OH (peptide)
peptide: {DTPA}-[dK]P[Gly(1-amidinopiperidin-4-yl)]RPY[Tle][tBuAla]-OH
SMILES: CC(C)(C)C[C@H](NC(=O)[C@@H](NC(=O)[C@H](Cc1ccc(O)cc1)NC(=O)[C@@H]1CCCN1C(=O)[C@H](CCCNC(=N)N)NC(=O)[C@@H](NC(=O)[C@@H]1CCCN1C(=O)[C@@H](CCCCN)NC(=O)CN(CCN(CCN(CC(=O)O)CC(=O)O)CC(=O)O)CC(=O)O)C1CCN(C(=N)N)CC1)C(C)(C)C)C(=O)O
With B7, the Kd in assay [1] was determined as 7.3 nM.
On the same count and under the same terms, the value for {DTPA}-[dK]P[Gly(1-amidinopiperidin-4-yl)]R[AzeCA]Y[Tle]L-OH [DTPA-DLys-Pro-Gly(PipAm)-Arg-AzeCA-Tyr-tBuGly-Leu-OH] was 740 nM.
Regarding {DTPA}-[dK]P[Gly(1-amidinopiperidin-4-yl)]RPY[Tle]L-{NHOH} [DTPA-DLys-Pro-Gly(PipAm)-Arg-Pro-Tyr-tBuGly-Leu-HA], the Kd in assay [2] amounted to 49 nM.

B8: DTPA-DLys-Pro-Gly(PipAm)-Arg-Pro-Tyr-tBuGly-Cha-OH (peptide)
peptide: {DTPA}-[dK]P[Gly(1-amidinopiperidin-4-yl)]RPY[Tle][Cha]-OH
SMILES: CC(C)(C)[C@H](NC(=O)[C@H](Cc1ccc(O)cc1)NC(=O)[C@@H]1CCCN1C(=O)[C@H](CCCNC(=N)N)NC(=O)[C@@H](NC(=O)[C@@H]1CCCN1C(=O)[C@@H](CCCCN)NC(=O)CN(CCN(CCN(CC(=O)O)CC(=O)O)CC(=O)O)CC(=O)O)C1CCN(C(=N)N)CC1)C(=O)N[C@@H](CC1CCCCC1)C(=O)O
On to B8, for which the dissociation constant (Kd) in assay [1] turned out to be 12 nM.
As for {DTPA}-[dK]P[Ala(PipAm)]RPY[Tle]L-OH [DTPA-DLys-Pro-Ala(PipAm)-Arg-Pro-Tyr-tBuGly-Leu-OH], the Kd in assay [2] is 14 nM.

B9: DTPA-DTyr-Glu-Asn-Lys-Pro-Gly(PipAm)-Arg-Pro-Tyr-tBuGly-Leu-OH (peptide)
peptide: {DTPA}-[dY]ENKP[Gly(1-amidinopiperidin-4-yl)]RPY[Tle]L-OH
SMILES: CC(C)C[C@H](NC(=O)[C@@H](NC(=O)[C@H](Cc1ccc(O)cc1)NC(=O)[C@@H]1CCCN1C(=O)[C@H](CCCNC(=N)N)NC(=O)[C@@H](NC(=O)[C@@H]1CCCN1C(=O)[C@H](CCCCN)NC(=O)[C@H](CC(N)=O)NC(=O)[C@H](CCC(=O)O)NC(=O)[C@@H](Cc1ccc(O)cc1)NC(=O)CN(CCN(CCN(CC(=O)O)CC(=O)O)CC(=O)O)CC(=O)O)C1CCN(C(=N)N)CC1)C(C)(C)C)C(=O)O
notes: also called Compound XIII
In assay [2], B9 yielded a Kd of 4.5 nM. Against the preceding molecule, the Kd is about 3.1-fold lower.

B10: DTPA-DLys-Pro-Gly(PipAm)-Arg-Pro-Tyr-Ile-Leu-OH (peptide)
peptide: KPXRPYIL
modifications: N-terminal DTPA; D-Lys at 1; Gly(PipAm) ((N-amidinopiperidinyl)glycine) at 3 (X)
notes: also called Compound II
Consider B10, for which the dissociation constant (Kd) in assay [4], in assay [2] and in assay [3] was 2.7 nM in each case.

B11: DTPA-DLys-Pro-Arg-(4-Gu)Phe-Pro-Tyr-Ile-Leu-OH (peptide)
peptide: KPRXPYIL
modifications: N-terminal DTPA; D-Lys at 1; (4-Gu)Phe [Phe(4-guanyl)] at 4 (X)
notes: also called DTPA-DLys-Pro-Arg-Phe(4-guanyl)-Pro-Tyr-Ile-Leu-OH
In the case of B11, the equilibrium dissociation constant (Kd) in assay [2] and in assay [3] was 83 nM throughout.
In assay [2], {DTPA}-[dK]P[Gly(1-amidinopiperidin-4-yl)]RPY[Chg]L-OH [DTPA-DLys-Pro-Gly(PipAm)-Arg-Pro-Tyr-Chg-Leu-OH] yielded a Kd of 25 nM.

B12: DTPA-DTyr-Glu-Asn-Lys-Pro-Gly(PipAm)-Arg-Pro-Tyr-tBuGly-Cha-OH (peptide)
peptide: {DTPA}-[dY]ENKP[Gly(1-amidinopiperidin-4-yl)]RPY[Tle][Cha]-OH
SMILES: CC(C)(C)[C@H](NC(=O)[C@H](Cc1ccc(O)cc1)NC(=O)[C@@H]1CCCN1C(=O)[C@H](CCCNC(=N)N)NC(=O)[C@@H](NC(=O)[C@@H]1CCCN1C(=O)[C@H](CCCCN)NC(=O)[C@H](CC(N)=O)NC(=O)[C@H](CCC(=O)O)NC(=O)[C@@H](Cc1ccc(O)cc1)NC(=O)CN(CCN(CCN(CC(=O)O)CC(=O)O)CC(=O)O)CC(=O)O)C1CCN(C(=N)N)CC1)C(=O)N[C@@H](CC1CCCCC1)C(=O)O
notes: also called Compound XIV
B12 returned a dissociation constant Kd in assay [2] of 4.5 nM.

The values above are taken from patent US20050191240A1 (BIOSYNTHEMA, published 2005).
